The supplement of paper PMC10724198
± gives the standard deviation of the averaged measurements.

What was measured:
Saccharomyces cerevisiae [1] = test: protein stability index of tFT-peptide fusion (C-terminal peptide) (PSI (0-1 scale)); higher = more stable (slower turnover); conditions: genetic background: wild type; temperature: 30 C
Saccharomyces cerevisiae [2] = test: as above
Method: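 MPS profiling in S. cerevisiae of the tFT-X12 degron library: putative degron peptides plus stable controls, 12 aa, fused to the C-terminus of a sfGFP-mCherry timer. Cells are FACS-sorted into 8 mCherry/sfGFP bins and deep-sequenced. PSI runs from 0 (unstable) to 1 (stable). Backgrounds are wild type, das1Δ and doa10Δ at 30 °C, and wild type, das1Δ, cdc34-1 and cdc53-1 at 37 °C; 2-3 technical replicates each.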

[3] = genetic background: cdc34-1, temperature: 37 C
[4] = genetic background: cdc53-1, temperature: 37 C
[5] = genetic background: das1 deletion, temperature: 30 C
[6] = genetic background: das1 deletion, temperature: 37 C
[7] = genetic background: doa10 deletion, temperature: 30 C
[8] = genetic background: wild type, temperature: 30 C
[9] = genetic background: wild type, temperature: 37 C
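Also: PSI is a weighted mean of sequencing reads over stability bins, variants kept only with over 10 reads, mCherry proximal and sfGFP distal, peptide attached via GGGS linker.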

Sequence	protein stability index (Saccharomyces cerevisiae [1])	protein stability index (Saccharomyces cerevisiae [2]; [3])	protein stability index (Saccharomyces cerevisiae [2]; [4])	protein stability index (Saccharomyces cerevisiae [2]; [5])	protein stability index (Saccharomyces cerevisiae [2]; [6])	protein stability index (Saccharomyces cerevisiae [2]; [7])	protein stability index (Saccharomyces cerevisiae [2]; [8])	protein stability index (Saccharomyces cerevisiae [2]; [9])
ACALRSLPPRPY	0.188 ± 0.064	0.69 ± 0.035	0.7529 ± 0.0042	0.65 ± 0.024	0.746 ± 0.024	0.68 ± 0.019	0.649 ± 0.021	0.712 ± 0.017
ACCGVFFFFFWL	0.404 ± 0.018	0.403 ± 0.029	0.479 ± 0.018	0.366 ± 0.031	0.414 ± 0.016	0.363 ± 0.0061	0.35 ± 0.02	0.433 ± 0.031
ACLVAVWRWVFV	0.126 ± 0.024	0.276 ± 0.017	0.44 ± 0.037	0.309 ± 0.024	0.475 ± 0.0051	0.0646 ± 0.012	0.0758 ± 0.0066	0.0704 ± 0.0067
AFAFLLHRFLLV	0.148 ± 0.017	0.493 ± 0.058	0.55 ± 0.0057	0.477 ± 0.018	0.584 ± 0.0064	0.103 ± 0.0047	0.11 ± 0.012	0.142 ± 0.011
AFRRFLLYCRFI	0.198 ± 0.012	0.395 ± 0.013	0.378 ± 0.0056	0.503 ± 0.035	0.607 ± 0.015	0.199 ± 0.019	0.148 ± 0.025	0.201 ± 0.029
AFYQSGGLVVVV		0.618 ± 0.043	0.617 ± 0.016	0.459 ± 0.034	0.6279 ± 0.0048	0.45 ± 0.016	0.477 ± 0.024	0.591 ± 0.046
AIPRWLALLVAH	0.241 ± 0.0097	0.32 ± 0.012	0.381 ± 0.0079	0.29 ± 0.032	0.4508 ± 0.0036	0.13 ± 0.018	0.159 ± 0.022	0.238 ± 0.0066
ALWRAWLRLRIW	0.205 ± 0.0025	0.517 ± 0.054	0.591 ± 0.03	0.582 ± 0.019	0.733 ± 0.016	0.143 ± 0.0041	0.124 ± 0.0037	0.0985 ± 0.012
APPFPPPPARSL		0.644 ± 0.034	0.713 ± 0.0095	0.675 ± 0.019	0.718 ± 0.033	0.694 ± 0.022	0.68 ± 0.017	0.677 ± 0.015
AQLVYVITAVRT	0.42 ± 0.029	0.452 ± 0.017	0.458 ± 0.024	0.333 ± 0.031	0.569 ± 0.026	0.291 ± 0.025	0.315 ± 0.019	0.507 ± 0.029
ARLTNYFVEWLS	0.4612 ± 0.00085	0.667 ± 0.012	0.757 ± 0.012	0.657 ± 0.0066	0.746 ± 0.012	0.358 ± 0.023	0.383 ± 0.029	0.592 ± 0.012
ASAYCCMITRLN	0.172 ± 0.042	0.485 ± 0.09	0.574 ± 0.086	0.629 ± 0.012	0.611 ± 0.047	0.0987 ± 0.011	0.0882 ± 0.026	0.1737 ± 0.00037
ASGVFSRLVLVS	0.3097 ± 0.0016	0.323 ± 0.0038	0.335 ± 0.016	0.284 ± 0.03	0.4576 ± 0.0023	0.173 ± 0.012	0.201 ± 0.024	0.282 ± 0.0035
ASPLRLFIPFLF	0.312 ± 0.058	0.678 ± 0.071	0.76 ± 0.017	0.632 ± 0.034	0.755 ± 0.036	0.192 ± 0.0066	0.211 ± 0.026	0.413 ± 0.0079
AWLWCVCWSIMR	0.395 ± 0.025	0.389 ± 0.017	0.414 ± 0.013	0.317 ± 0.034	0.502 ± 0.024	0.373 ± 0.028	0.323 ± 0.021	0.453 ± 0.0073
AYFPSQRVHHLM	0.333 ± 0.017	0.637 ± 0.046	0.706 ± 0.066	0.661 ± 0.016	0.765 ± 0.013	0.144 ± 0.0018	0.174 ± 0.033	0.374 ± 0.03
CACAVPFLLLFF	0.411 ± 0.025	0.474 ± 0.0077	0.519 ± 0.017	0.374 ± 0.022	0.505 ± 0.0063	0.497 ± 0.028	0.347 ± 0.032	0.494 ± 0.023
CCSRYLSNLCPI	0.0813 ± 0.051	0.674 ± 0.052	0.751 ± 0.036	0.631 ± 0.016	0.7263 ± 0.0048	0.657 ± 0.033	0.648 ± 0.0072	0.726 ± 0.017
CDSRIRKIWSYL	0.36 ± 0.0036	0.836 ± 0.069	0.883 ± 0.019	0.774 ± 0.021	0.834 ± 0.026	0.2666 ± 0.0024	0.284 ± 0.039	0.494 ± 0.0054
DNTYRIDIKNKQ		0.764 ± 0.093	0.771 ± 0.04	0.641 ± 0.019	0.689 ± 0.0069	0.4753 ± 0.0045	0.466 ± 0.013	0.6553 ± 0.00098
